The values that follow are results of earlier work, collected in PMC6295471.

The target of series [1] is Mxd1 5-24 (Homo sapiens) (UniProt Q05195).
For series [2], the target named is Mxd1 5-20 (Homo sapiens) (UniProt Q05195).
In series [3] the target is Sap30 SID (Mus musculus) (UniProt O88574).
UniProt O88574, sequence (O88574 130-220): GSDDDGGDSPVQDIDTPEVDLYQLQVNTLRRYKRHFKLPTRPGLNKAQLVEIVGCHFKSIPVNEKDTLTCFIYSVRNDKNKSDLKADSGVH

UniProt Q05195, sequence (Q05195 5-24): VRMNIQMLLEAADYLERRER

Turning to Sin3 PAH2 (from UniProt Q62141), the dissociation constant Kd (as a rule, the free concentration of one partner at which half of the binding sites on the other are occupied at equilibrium, for simple one-to-one binding) in series [1] was 400 nM; in series [2], 1400 nM.

Consider Sin3 PAH3 (from UniProt Q60520), for which the dissociation constant Kd in series [3] was 10 nM.
